The supplement of paper PMC9170038

System: MS2 coat protein
Test: apparent KD of MS2 coat protein; designed switch direction (-1 OFF switch, 1 ON switch): -1; higher = weaker reporter binding
Procedure, shortened: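 Stalled E. coli RNA polymerase transcribed designed RNA switches on Illumina chips, which were then titrated with SNAP-549-labelled MS2 coat protein, doubling from 0.7 or 1.5 nM to 3 µM. Steps lasted from 0.8–1.5 h at the lowest concentration to 10–20 min at the highest. The apparent KD is each design's median over clusters of curve-fitted normalised fluorescence.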

[1] = Eterna round: R95, input ligand: FMN 200 uM
[2] = Eterna round: R95, input ligand: microRNA oligo, concentration not stated
[3] = Eterna round: R95, input ligand: none
[4] = input ligand: microRNA oligo, concentration not stated

| Sequence | apparent KD of MS2 coat protein [1] [µM] | apparent KD of MS2 coat protein [2] [µM] | apparent KD of MS2 coat protein [3] [µM] | apparent KD of MS2 coat protein (input ligand: FMN 200 uM) [µM] | apparent KD of MS2 coat protein (input ligand: none) [µM] | apparent KD of MS2 coat protein [4] [µM] |
| --- | --- | --- | --- | --- | --- | --- |
| GAUUAUGCGAGCUUUAGGGACAUGAGGAUCACCCAUGUUCGUCUUAUUGGUCUGGGUACGCUAACAUACCUAAAUCU [JMF 5] (puzzle: Sensor v3, turn-off variant 1) | 0.0343 | 0.0467 | 0.0372 | – | – | – |
| ACGUGAUAUCUGUCGGUGGACAUGAGGAUCACCCAUGUAAGCUUUUUGCUCGUCUUAUAACCCGGUGACAGACCUUC [Tixeed] (puzzle: Sensor v3, turn-off variant 1) | 0.0337 | 0.268 | 0.0373 | – | – | – |
| GAAUCGACAGGAUAUACAUGAGGAUCACCCAUGUAGUCAGAGAUGAUACCUCAACCUAGUAGAAGGGUCAGCGG [Eternabot (L2) Solution 17] (Eterna round: R97, puzzle: Exclusion 3) | – | – | – | 0.0455 | 0.025 | – |
| CCACGACAUGAGGAUCACCCAUGUGAGGAUAUGGCCAGUAUGGCGUGAGCUGAAUCAAUCAGAAGGCGCGUGGG [salish99_ex1_r4_056] (Eterna round: R97, puzzle: Exclusion 1) | – | – | – | 0.276 | 0.339 | – |
| GCGUAUGAGCAGGAUAUCCCGCGGGAAUCCAUAGGAGAAGGGCUCACAUGAGGAUCACCCAUGUGGUCCAGAAA [Isisan] (puzzle: Exclusion 6) | 0.0202 | 0.0161 | 0.018 | – | – | – |
| CUGGUGUGAGGAUAUCAGGACACGCCCGCGGACGUGUCAAAUGAGAAGGCACAUGAGGAUCACCCAUGUGGGAC [Onzausin] (puzzle: Exclusion 4) | – | 0.0317 | – | – | – | – |
| GCCAGUGCAGGAUAUCUAUAACCCUACAUGAGGAUCACCCAUGUCCAGCGAAAGCUGGAGGGAGAAGGGCACUGGC [Fiskers Ex 5 - 27] (puzzle: Exclusion 5) | 0.0155 | 0.0176 | 0.0215 | – | – | – |
| UUGGUUAUCUAUGGAAGUAACAUGAGGAUCACCCAUGUAUGUCUUGUUUUUUGUUCGUCAUAGGCCUUUUGUUUGGA [JR_SV3TOV1_Sub023] (puzzle: Sensor v3, turn-off variant 1) | 0.0249 | 0.0249 | 0.0303 | – | – | – |
| CUUUCGUGAGGAUAUCAGUAGUAAAAAUAUAAAAUUACUACUGAGAAGGCACAUGAGGAUCACCCAUGUUCCUC [salish99_ex3_r3_100] (puzzle: Exclusion 4) | – | 0.0241 | – | – | – | – |
| UUUAAUUUUUUUUUUUUACAAGCUUUUUGCUCGUCUUAUACAUGAGGAUCACCCAUGUGGGUGAGGGAUAAAUUAUC [JMF 42] (puzzle: Sensor v3, turn-off variant 2) | 0.0163 | 0.0272 | 0.574 | – | – | – |
| AGGGAGCGAGGAUAUACAGAGUAAGAAACUACUCCCUCAGUACAUGAGGAUCACCCAUGUAGAAGGCGCCCGAC [EX2 A.2] (Eterna round: R97, puzzle: Exclusion 2) | – | – | – | 0.0337 | 0.0209 | – |
| GUCGUGCGGCUUUGCUGUACGAGUACAUGAGGAUCACCCAUGUAGGAUAUGGUUCGCUUUGCGUGCCAGAAGGGCGUGCGUUGG [Excl-NG3-LRO12] (Eterna round: R96, puzzle: Exclusion NG 3) | – | – | – | 0.0313 | 0.0311 | 0.0216 |
| CAUGUCUGAGGAUAUCGUUUUUUGUACAUGAGGAUCACCCAUGUCCUAUUUUUUAUAUUACGAGAAGGCAGUGGAU [JR_E5_Sub091] (Eterna round: R96, puzzle: Exclusion 5) | – | – | – | 0.0279 | 0.0392 | 0.0278 |
| UGUCCACAUUCCGAUACGGGACAUGAGGAUCACCCAUGUCCACAGGAUAUCGUCUUACGAGAGAUCGAGAAGGGUGGCGUGCGC [Eternabot solution 22] (Eterna round: R96, puzzle: Exclusion NG 3) | – | – | – | 0.0131 | 0.0141 | 0.00972 |
| CUGGUGUGAGGAUAUCAAAGACCUCGGGAUAGUACCGAGGAUGAGAAGGCACAUGAGGAUCACCCAUGUAACAA [Armaleti] (puzzle: Exclusion 4) | – | 0.0221 | – | – | – | – |
| AGCUGUGGCCGAGGAUAUACAAUAACGAUGAGUGGAUUACACUCUUCGACAUGAGGAUCACCCAUGUAGAAGGCGGUCUCAGCA [Eli eng2 - 001] (Eterna round: R96, puzzle: Exclusion NG 2) | – | – | – | 0.0413 | 0.018 | 0.0146 |
| UCGCUGCGAGGAUAUACAUGAGGAUCACCCAUGUACGGGUCCGGGUCUUUGUCUAUUGGUAGAAGGCGCAGUGA [JL Laongeedie mod 9] (puzzle: Exclusion 3) | – | 0.0515 | – | – | – | – |
| AAGUAGUGUGUGAGGAUAUUGGUGGAAUGACACAUUAAGAAGGUACAUGAGGAUCACCCAUGUGGGUAAACACG [Brourd's EX4 #23] (Eterna round: R97, puzzle: Brourd's mod of Exclusion 4) | – | – | – | 0.137 | 0.146 | – |
| UCUGGUCGGAAGGAUAUGGUCGGGUCAAAUCGUCCAGAAGGUCUGACAUGAGGAUCACCCAUGUGAGUCCAAAG [Ataesma] (puzzle: Exclusion 6) | 0.0775 | 0.0204 | 0.0218 | – | – | – |
| CCUCUGUAAGGAUAUACGGAGACCACUGGAAUCAGUGGAAAGUAGAAGGUACAUGAGGAUCACCCAUGUGAGAA [Laveatisce] (puzzle: Exclusion 4) | 0.0365 | 0.0362 | 0.0493 | – | – | – |
| UAAUAACAUGUAGGAUAUGCGUGGCGAAGCUAUGCAGAAGGACAUGAGGAUCACCCAUGUUAAAGCGUCUGCGUACAGAUGCGA [Mat - Exclusion NG 1 - Mod of JL - D97] (Eterna round: R96, puzzle: Exclusion NG 1) | – | – | – | 0.188 | 0.0311 | 0.0301 |
| UUGUUAUAUGAAGGAUAUACUUAACAUGAGGAUCACCCAUGUGGUGUUGUGAGUGAGUGAGUUUAGUAGAAGGUCAAGUAUUUU [JMF's solution 52] (Eterna round: R96, puzzle: Exclusion NG 2) | – | – | – | 0.509 | 0.377 | 0.368 |
| CUUCCCAAAGGAUAUCACGGUAAUAACAUGAGGAUCACCCAUGUGCAAUUCGUGUCCCUGUGAGAAGGUUGAGAAG [Anlabe] (puzzle: Exclusion 5) | 0.0179 | 0.0111 | 0.012 | – | – | – |
| GAUUAUGCGAGCUUUAGGGACAUGAGGAUCACCCAUGUUCGUCUUGUUGAUCUAGGUACACUGACAUACCUAAAUCU [JMF 65] (puzzle: Sensor v3, turn-off variant 1) | 0.022 | 0.0269 | 0.0183 | – | – | – |
| GGAUCGAUAGUGAGGAUAUACCACUGGAUACAGUGGUAGAAGGCACAUGAGGAUCACCCAUGUCCUAACGAUCC [Fiskers BMX 4 - 49] (puzzle: Brourd's mod of Exclusion 4) | – | 0.0176 | – | – | – | – |
| GGUGGACAUGAGGAUCACCCAUGUGAGGAUAUCGGCUAUCUACUCGCUGACGGUUGCUCGAGAAGGCACAUUGU [Exclusion 1 V92] (puzzle: Exclusion 1) | – | 0.0909 | – | – | – | – |
